According to paper doi:10.1101/2025.11.01.685996 (bioRxiv, 2025):

Columns and labels:
[1] = target: human C5aR1 with C-terminal SmBiT (hC5aR1-SmBiT) (human) (UniProt P21730)
[2] = target: human C3aR with C-terminal SmBiT (hC3aR) (human) (UniProt Q16581)
[3] = target: human C5aR1-Rluc8 (human) (UniProt P21730)
[4] = target: mouse C5aR2, purified from Sf9 cells (mC5aR2) (not stated | mouse) (UniProt P08173); assay: cryo-EM structure
[5] = target: mouse C5aR2, purified from Sf9 cells (mC5aR2) (not stated | mouse) (UniProt P08173); assay: SEC
[6] = target: T1, mouse C5aR1, purified (mC5aR1) for cryo-EM and HDX-MS (mouse, UniProt P30993 1-351); assay: cryo-EM structure
T1 sequence: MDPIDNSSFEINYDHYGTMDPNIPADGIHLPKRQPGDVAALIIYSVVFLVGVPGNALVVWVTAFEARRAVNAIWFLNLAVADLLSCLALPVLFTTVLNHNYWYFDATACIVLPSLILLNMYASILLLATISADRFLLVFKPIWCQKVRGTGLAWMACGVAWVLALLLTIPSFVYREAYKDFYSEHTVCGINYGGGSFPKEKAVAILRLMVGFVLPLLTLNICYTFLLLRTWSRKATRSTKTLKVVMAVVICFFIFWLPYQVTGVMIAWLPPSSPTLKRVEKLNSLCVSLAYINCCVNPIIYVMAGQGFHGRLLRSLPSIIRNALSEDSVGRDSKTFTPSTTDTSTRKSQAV

Chain of human C5aR1 with C-terminal SmBiT (hC5aR1-SmBiT) (human) (P21730 whole entry): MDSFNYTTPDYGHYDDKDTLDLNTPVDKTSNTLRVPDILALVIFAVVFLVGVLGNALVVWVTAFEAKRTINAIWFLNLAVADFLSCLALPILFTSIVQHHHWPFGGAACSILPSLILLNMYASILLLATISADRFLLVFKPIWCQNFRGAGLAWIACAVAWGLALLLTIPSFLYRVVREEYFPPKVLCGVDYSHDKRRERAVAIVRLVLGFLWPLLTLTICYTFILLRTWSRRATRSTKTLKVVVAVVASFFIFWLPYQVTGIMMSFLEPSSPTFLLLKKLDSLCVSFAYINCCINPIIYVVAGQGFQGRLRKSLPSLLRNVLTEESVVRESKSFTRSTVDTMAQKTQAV
Chain of human C5aR1-Rluc8 (human) (P21730 whole entry): as above
Chain of human C3aR with C-terminal SmBiT (hC3aR) (human) (Q16581 whole entry): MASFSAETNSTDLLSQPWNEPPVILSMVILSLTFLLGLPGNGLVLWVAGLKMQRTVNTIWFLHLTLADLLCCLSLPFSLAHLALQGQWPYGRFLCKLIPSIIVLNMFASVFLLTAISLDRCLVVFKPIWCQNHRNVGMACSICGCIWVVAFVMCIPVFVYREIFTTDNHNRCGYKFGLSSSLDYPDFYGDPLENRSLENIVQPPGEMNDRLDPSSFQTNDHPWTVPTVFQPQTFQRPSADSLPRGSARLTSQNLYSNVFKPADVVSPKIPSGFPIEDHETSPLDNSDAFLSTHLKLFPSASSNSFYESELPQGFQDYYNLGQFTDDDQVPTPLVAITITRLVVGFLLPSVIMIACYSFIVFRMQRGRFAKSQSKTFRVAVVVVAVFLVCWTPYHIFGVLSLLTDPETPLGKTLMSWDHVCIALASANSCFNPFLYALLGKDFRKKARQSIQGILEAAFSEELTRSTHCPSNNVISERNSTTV

“R8Y, [Tyr1,Tyr8]BM2020-8, C5aR2-selective peptide agonist” was tested, and the activation of C5aR1 (Figure S10D and Table S1) [1] was greater than 10 µM and the activation of C3aR (Figure S10D and Table S1) [2] was greater than 10 µM.

Work on [Tyr8]BM2020-8 peptide yielded an efficacy at C5aR1 relative to C5a; read-out not given [3] of 41%.

Molecule “mouse C5aR2, purified from Sf9 cells (mC5aR2) (from UniProt P08173 2-23) (receptor)” has a stoichiometry N [4] of 2 and a stoichiometry N [5] of 2.

B1: mouse complement anaphylatoxin C5a, recombinant (mC5a) (ligand)
chain: NLHLLRQKIEEQAAKYKHSVPKKCCYDGARVNFYETCEERVARVTIGPLCIRAFNECCTIANKIRKESPHKPVQLGR
B1: binds [6].
